# T1: BurrH (Burkholderia rhizoxinica, UniProt E5AV36 1-771)
# T1 sequence: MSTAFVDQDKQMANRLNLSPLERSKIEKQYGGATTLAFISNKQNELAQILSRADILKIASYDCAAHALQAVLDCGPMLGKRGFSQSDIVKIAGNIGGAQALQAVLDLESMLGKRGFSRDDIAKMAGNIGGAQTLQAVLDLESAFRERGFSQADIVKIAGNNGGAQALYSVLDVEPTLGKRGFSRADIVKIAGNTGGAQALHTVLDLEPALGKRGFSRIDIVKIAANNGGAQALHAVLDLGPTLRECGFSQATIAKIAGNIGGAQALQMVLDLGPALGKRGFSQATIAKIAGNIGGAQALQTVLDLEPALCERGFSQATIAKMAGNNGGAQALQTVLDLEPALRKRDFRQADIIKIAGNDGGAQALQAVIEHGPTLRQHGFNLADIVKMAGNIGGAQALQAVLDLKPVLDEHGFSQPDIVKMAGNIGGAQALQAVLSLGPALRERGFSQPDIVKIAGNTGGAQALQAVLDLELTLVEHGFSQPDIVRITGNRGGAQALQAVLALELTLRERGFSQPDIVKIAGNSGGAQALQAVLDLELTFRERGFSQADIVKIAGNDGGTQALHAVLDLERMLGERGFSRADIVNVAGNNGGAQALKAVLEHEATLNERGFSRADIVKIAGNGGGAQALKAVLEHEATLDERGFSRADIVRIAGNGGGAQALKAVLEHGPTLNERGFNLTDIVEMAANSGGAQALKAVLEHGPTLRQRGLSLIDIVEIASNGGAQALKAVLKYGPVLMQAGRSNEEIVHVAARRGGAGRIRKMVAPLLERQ
# B1: FA duplex 3 (G4 G12 A13) (dsDNA)
# DNA 1: TTAAGGGAAGCAAGAACGTTATA
# DNA 2: TATAACGTTCTTGCTTCCCTTAA
# B2: BurrH target G0 (dsDNA)
# DNA 1: TGAAGAGAAGCAAATACGTTATA
# DNA 2: TATAACGTATTTGCTTCTCTTCA
# B3: FA duplex 7 (G4 G12 T13) (dsDNA)
# DNA 1: TTAAGGGAAGCAAGTACGTTATA
# DNA 2: TATAACGTACTTGCTTCCCTTAA
# B4: FA duplex 14 (C4 C12 C13) (dsDNA)
# DNA 1: TTAAGCGAAGCAACCACGTTATA
# DNA 2: TATAACGTGGTTGCTTCGCTTAA
# B5: BurrH DNA target/RNA hybrid (DNA:RNA)
# DNA: TTAAGAGAAGCAAATACGTTATA
# RNA: UAUAACGUAUUUGCAACUCUUAA
# B6: FA duplex 13 (A4 A12 C13) (dsDNA)
# DNA 1: TTAAGAGAAGCAAACACGTTATA
# DNA 2: TATAACGTGTTTGCTTCTCTTAA
# B7: FA duplex 12 (T4 T12 G13) (dsDNA)
# DNA 1: TTAAGTGAAGCAATGACGTTATA
# DNA 2: TATAACGTCATTGCTTCACTTAA
# B8: FA duplex 15 (G4 G12 C13) (dsDNA)
# DNA 1: TTAAGGGAAGCAAGCACGTTATA
# DNA 2: TATAACGTGCTTGCTTCCCTTAA
# B9: BurrH target A0 (dsDNA)
# DNA 1: TAAAGAGAAGCAAATACGTTATA
# DNA 2: TATAACGTATTTGCTTCTCTTTA
# B10: FA duplex 4 (T4 T12 A13) (dsDNA)
# DNA 1: TTAAGTGAAGCAATAACGTTATA
# DNA 2: TATAACGTTATTGCTTCACTTAA
# B11: FA duplex 11 (G4 G12 G13) (dsDNA)
# DNA 1: TTAAGGGAAGCAAGGACGTTATA
# DNA 2: TATAACGTCCTTGCTTCCCTTAA
# B12: BurrH RNA target/DNA hybrid (DNA:RNA)
# RNA: UUAAGAGAAGCAAAUACGUUAUA
# DNA: TATAACGTATTTGCAACTCTTAA
# B13: FA duplex 1 (A4 A12 A13) (dsDNA)
# DNA 1: TTAAGAGAAGCAAAAACGTTATA
# DNA 2: TATAACGTTTTTGCTTCTCTTAA
# B14: FA duplex 10 (C4 C12 G13) (dsDNA)
# DNA 1: TTAAGCGAAGCAACGACGTTATA
# DNA 2: TATAACGTCGTTGCTTCGCTTAA
# B15: FA duplex 5 (A4 A12 T13) (dsDNA)
# DNA 1: TTAAGAGAAGCAAATACGTTATA
# DNA 2: TATAACGTATTTGCTTCTCTTAA
# B16: FA duplex 2 (C4 C12 A13) (dsDNA)
# DNA 1: TTAAGCGAAGCAACAACGTTATA
# DNA 2: TATAACGTTGTTGCTTCGCTTAA
# B17: BurrH DNA target duplex (dsDNA)
# DNA 1: TTAAGAGAAGCAAATACGTTATA
# DNA 2: TATAACGTATTTGCTTCTCTTAA
# B18: FA duplex 6 (C4 C12 T13) (dsDNA)
# DNA 1: TTAAGCGAAGCAACTACGTTATA
# DNA 2: TATAACGTAGTTGCTTCGCTTAA
# B19: BurrH target C0 (dsDNA)
# DNA 1: TCAAGAGAAGCAAATACGTTATA
# DNA 2: TATAACGTATTTGCTTCTCTTGA
# B20: FA duplex 9 (A4 A12 G13) (dsDNA)
# DNA 1: TTAAGAGAAGCAAAGACGTTATA
# DNA 2: TATAACGTCTTTGCTTCTCTTAA
# Columns and labels:
# [1] = target: BurrH Variant1 (CAPNS1) (Burkholderia rhizoxinica) (UniProt E5AV36); assay: ITC; settings: FA and ITC: 25 mM HEPES pH 8, 150 mM NaCl, 0.2 mM TCEP, 298 K, SPR: HBS-EP+ (10 mM HEPES pH 7.4, 150 mM NaCl, 3 mM EDTA, 0.05% P20)
# [2] = target: Variant1 ND (Burkholderia rhizoxinica) (UniProt E5AV36); assay: ITC; settings: FA and ITC: 25 mM HEPES pH 8, 150 mM NaCl, 0.2 mM TCEP, 298 K, SPR: HBS-EP+ (10 mM HEPES pH 7.4, 150 mM NaCl, 3 mM EDTA, 0.05% P20)
# [3] = target: BurrH Variant3 (RAG1) (Burkholderia rhizoxinica) (UniProt E5AV36); assay: ITC; settings: FA and ITC: 25 mM HEPES pH 8, 150 mM NaCl, 0.2 mM TCEP, 298 K, SPR: HBS-EP+ (10 mM HEPES pH 7.4, 150 mM NaCl, 3 mM EDTA, 0.05% P20)
# [4] = target: Variant3 ND (Burkholderia rhizoxinica) (UniProt E5AV36); assay: ITC; settings: FA and ITC: 25 mM HEPES pH 8, 150 mM NaCl, 0.2 mM TCEP, 298 K, SPR: HBS-EP+ (10 mM HEPES pH 7.4, 150 mM NaCl, 3 mM EDTA, 0.05% P20)
# [5] = target: BurrH Variant4 (RAG1) (Burkholderia rhizoxinica) (UniProt E5AV36); assay: ITC; settings: FA and ITC: 25 mM HEPES pH 8, 150 mM NaCl, 0.2 mM TCEP, 298 K, SPR: HBS-EP+ (10 mM HEPES pH 7.4, 150 mM NaCl, 3 mM EDTA, 0.05% P20)
# [6] = target: Variant4 ND (Burkholderia rhizoxinica) (UniProt E5AV36); assay: ITC; settings: FA and ITC: 25 mM HEPES pH 8, 150 mM NaCl, 0.2 mM TCEP, 298 K, SPR: HBS-EP+ (10 mM HEPES pH 7.4, 150 mM NaCl, 3 mM EDTA, 0.05% P20)
# AvrBs3 TALE = assay: SPR; settings: FA and ITC: 25 mM HEPES pH 8, 150 mM NaCl, 0.2 mM TCEP, 298 K, SPR: HBS-EP+ (10 mM HEPES pH 7.4, 150 mM NaCl, 3 mM EDTA, 0.05% P20)
# BurrH [7] = target: T1, BurrH; assay: SPR; settings: FA and ITC: 25 mM HEPES pH 8, 150 mM NaCl, 0.2 mM TCEP, 298 K, SPR: HBS-EP+ (10 mM HEPES pH 7.4, 150 mM NaCl, 3 mM EDTA, 0.05% P20)
# [8] = target: BurrH Variant2 (CAPNS1) (Burkholderia rhizoxinica) (UniProt E5AV36); assay: ITC; settings: FA and ITC: 25 mM HEPES pH 8, 150 mM NaCl, 0.2 mM TCEP, 298 K, SPR: HBS-EP+ (10 mM HEPES pH 7.4, 150 mM NaCl, 3 mM EDTA, 0.05% P20)
# [9] = target: Variant2 ND (Burkholderia rhizoxinica) (UniProt E5AV36); assay: ITC; settings: FA and ITC: 25 mM HEPES pH 8, 150 mM NaCl, 0.2 mM TCEP, 298 K, SPR: HBS-EP+ (10 mM HEPES pH 7.4, 150 mM NaCl, 3 mM EDTA, 0.05% P20)
# BurrH [10] = target: T1, BurrH; assay: fluorescence anisotropy; FA and ITC: 25 mM HEPES pH 8, 150 mM NaCl, 0.2 mM TCEP, 298 K; SPR: HBS-EP+ (10 mM HEPES pH 7.4, 150 mM NaCl, 3 mM EDTA, 0.05% P20), 298 K; settings: protein: recombinant; label: 5' 6-FAM
# BurrH [11] = target: T1, BurrH; assay: ITC; FA and ITC: 25 mM HEPES pH 8, 150 mM NaCl, 0.2 mM TCEP, 298 K; SPR: HBS-EP+ (10 mM HEPES pH 7.4, 150 mM NaCl, 3 mM EDTA, 0.05% P20), 298 K; settings: protein: recombinant
molecule,measurement,setting,value
TTGGCTCTGTGGGCTCGGGTCTA (double strand) [V1 target],Kd,[1],29 nM
same,Kd,[2],29 nM
TTCAGTGTTTATGGTTACTTATA (double strand) [V3 target],Kd,[3],30 nM
same,Kd,[4],26 nM
TTGTATATATTTAAGCACTTATA (double strand) [V4 target],Kd,[5],12 nM
same,Kd,[6],14 nM
"AvrBs3 target, SPR duplex",Kd,AvrBs3 TALE,0.22 nM
"BurrH target, SPR duplex",Kd,AvrBs3 TALE,1000 nM
same,Kd,BurrH [7],0.36 nM
TTTTGTCCGGGAACCCAGAGCTA (double strand) [V2 target],Kd,[8],149 nM
same,Kd,[9],215 nM
B1,Kd,BurrH [10],81 ± 12 nM
B2,Kd,BurrH [11],24 ± 6.3 nM
B3,Kd,BurrH [10],42 ± 7 nM
B4,Kd,BurrH [10],47 ± 5 nM
B5,Kd,BurrH [11]; blunt,56 ± 6.5 nM
B6,Kd,BurrH [10],39 ± 10 nM
B7,Kd,BurrH [10],63 ± 5 nM
B8,Kd,BurrH [10],59 ± 6 nM
B9,Kd,BurrH [11],15 ± 2.8 nM
B10,Kd,BurrH [10],61 ± 8 nM
B11,Kd,BurrH [10],90 ± 12 nM
B12,Kd,BurrH [11]; blunt,1890 ± 438 nM
B13,Kd,BurrH [10],40 ± 3 nM
B14,Kd,BurrH [10],49 ± 10 nM
B15,Kd,BurrH [10],32 ± 7 nM
B16,Kd,BurrH [10],44 ± 9 nM
B17,Kd,BurrH [11],25 ± 4.3 nM
B18,Kd,BurrH [10],43 ± 10 nM
B19,Kd,BurrH [11],15 ± 3.2 nM
B20,Kd,BurrH [10],35 ± 6 nM

# From PMC4089491, “BuD, a helix–loop–helix DNA-binding domain for genome modification”
